This is an account of results in patent publication US6316596A, “Receptor for peptide hormones involving in energy homeostasis” (The Rockefeller University, priority 1998, dated 2001).

For test [1], the system named is CHL cells transfected with the vector alone. Description: binding of 125I-VIP to CHL cells transfected with vector alone. The arrangement: species or system Chinese hamster. As to conditions: data not shown. As to the method:
Stable transformants were selected in the presence of G418 (0.8 mg/ml, GIBCO/BRL, Gaithersburg, Md.). […] Each peptide concentration prepared in Hfank's balanced salt solution containing 20 mM HEPES, pH 7.4, 0.5% BSA and 0.1 mM phenylmethylsulfonyl-fluoride (PMSF) was added in triplicates to intact cells. Following the incubation, the cells were washed two times with ice-cold PBS, lysed with 1 N NaOH, and radioactivity measured in gamma counter. […] The maximum specific binding was 5%. The variation among triplicate values was 10%.

Test [2] deals with T1, recombinant human PACAP/VIP R-2 receptor (Homo sapiens, UniProt P41587).
T1 construct: expressed in transfected cells
T1 sequence (P41587 24-438 R412H/G424A): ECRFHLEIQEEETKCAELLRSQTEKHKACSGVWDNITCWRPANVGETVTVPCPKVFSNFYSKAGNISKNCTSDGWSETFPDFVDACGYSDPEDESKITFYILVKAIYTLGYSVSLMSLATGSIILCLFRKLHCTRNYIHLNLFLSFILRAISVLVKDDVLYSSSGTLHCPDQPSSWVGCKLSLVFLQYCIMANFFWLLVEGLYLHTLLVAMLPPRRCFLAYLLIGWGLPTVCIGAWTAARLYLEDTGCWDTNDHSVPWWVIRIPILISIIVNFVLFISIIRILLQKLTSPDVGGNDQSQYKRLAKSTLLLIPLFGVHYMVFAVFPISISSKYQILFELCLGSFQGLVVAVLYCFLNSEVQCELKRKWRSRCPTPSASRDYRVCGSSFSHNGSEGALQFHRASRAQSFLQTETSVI
The test is described as follows: competitive binding with 125I-VIP, CHL cells expressing recombinant receptor.
Procedure: Data points represent an average of two separate experiments (n=6). The variation among individual points was 10% (see Materials and Methods).
Each peptide concentration prepared in Hfank's balanced salt solution containing 20 mM HEPES, pH 7.4, 0.5% BSA and 0.1 mM phenylmethylsulfonyl-fluoride (PMSF) was added in triplicates to intact cells. Following the incubation, the cells were washed two times with ice-cold PBS, lysed with 1 N NaOH, and radioactivity measured in gamma counter. […] The variation among triplicate values was 10%.

Test [3] has as its target T1, recombinant human PACAP/VIP R-2 receptor. Description: stimulation of intracellular cAMP in cells expressing recombinant receptor. The format is cell-based. As to conditions: FIG. 2B; for stimulation of intracellular cAMP formation (in words) / peptide concentration at maximum stimulation of cAMP levels: CHL cells; for stimulation of intracellular cAMP formation (in words): 45 minutes at 37° C., secretin, glucagon, GLP-I and GLP-II at μM concentrations.
Source text: Data points represent an average of two separate determinations (n=6), except for secretin (n=3) (see Materials and Methods). The variation among individual points was 5%.

For test [4], the system named is CHL cells transfected with vector alone. Description: intracellular cAMP in CHL cells transfected with vector alone. To be noted: 1.1 μM; data not shown. The test is classed as cell-based, Chinese hamster. The procedure:
Cells were grown in 24-well plates to about 50% confluence. They were washed twice with the incubation buffer (Macy's 5A pH 7.4, containing 20 mM HEPES, 0.5% BSA and 0.5 mM IBMX) and incubated with different concentration of synthetic peptides added in triplicates (μM-pM) for 45 minutes at 37° C. In each experiment forskolin (10 μM, Sigma, St. Louis, Mo.) was added as a positive control. After removal of the medium, cells were washed twice with PBS and lysed with 95% ethanol. The suspension was centrifuged at 13,000 rpm for 3 minutes, and supernatants were taken to dryness in a speed vacuum. The contents were reconstituted in 0.05 M acetate buffer (0.5 ml) and cAMP levels measured using the cAMP Biotrak SPA system (Amersham, Arlington Heights, Ill.). The variation among triplicate values was 5%. The data shown in FIG. 2B are average of two separate incubations (n=6), except for secretin (n=3).

The next test deals with insulin secretion. To be noted: Yada et al., 1994; cited from earlier work.
Where [5] appears, read: 125I-VIP 44 pM, whole CHL cells.

Entries after “also recorded” stand apart in the source; their conditions may differ.

In the case of “125I-VIP: radioiodinated VIP (2000 Ci/mmol, Amersham)”, the “binding of 125I-VIP to vector-transfected cells” value in test [1] is “did not bind”.

Consider PACAP-27, for which, in test [2] (setting [5]), the “displacement of 125I-VIP binding (in words)” value (from here on “displacement”) is “complete displacement of ^125 I-VIP binding to the recombinant PACAP/VIP R-2 was not obtainable at high PACAP-27 concentration”. Also, the IC50 in test [2] (read-out: ID50, displacement of 125I-VIP binding, 125I-VIP 44 pM, whole CHL cells, 15-18 hour at 4° C., VIP and PACAP-27 values estimated (incomplete displacement)) was 37 nM. Further, in test [3], the “stimulation of intracellular cAMP formation (in words)” value (shortened to “stimulation … (in words)”) was “stimulated intracellular cAMP formation in a dose dependent manner” and the “peptide concentration at maximum stimulation of cAMP levels” value came out at 100 nM.

For the substance “PACAP-38: 38-amino acid form of pituitary adenylate cyclase activating polypeptide; synthetic, purchased from Peninsula”, in test [2] (setting [5]), the “displacement” value is “displaced in a dose dependent manner”. Moreover, the “relative affinity for the receptor (in words)” value in test [2] (competitive binding, whole cells) is listed as “higher affinity than PACAP-27; also recorded: slightly higher affinity for PACAP-38 than for VIP”. In addition, the “cAMP response at supraphysiological concentration” value in test [3] (1 μM PACAP-38) is recorded as “sharp drop to baseline levels”. Also, in test [3], the “stimulation … (in words)” value is “stimulated intracellular cAMP formation in a dose dependent manner” and the “peptide concentration at maximum stimulation of cAMP levels” value is 100 nM. Moreover, the “change of intracellular cAMP in vector-transfected cells” value in test [4] is given as “No change of intracellular cAMP was detected”. For the same substance, the “stimulation of insulin secretion” value in the test with insulin secretion was “ability to stimulate insulin secretion”.

Take glucagon-like peptide-I [GLP-I]: in test [2] (setting [5]), the “displacement” value is given as “did not displace this binding”. Besides, the “stimulation … (in words)” value in test [3] is reported as “did not show any stimulation”.

glucagon-like peptide-II [GLP-II]: in test [2] (setting [5]), the “displacement” value is recorded as “did not displace this binding”. Further, the “stimulation … (in words)” value in test [3] was “did not show any stimulation”.

Consider glucagon: glucagon, for which, in test [2] (setting [5]), the “displacement” value is on record as “did not displace this binding”. Besides, the “stimulation … (in words)” value in test [3] is on record as “did not show any stimulation”.

For “secretin: synthetic secretin purchased from Peninsula; high sequence homology to PACAP and VIP”, the “high concentration at which 125I-VIP binding was displaced” value in test [2] (125I-VIP, FIG. 2A) worked out at 3.8 µM. Moreover, the “stimulation … (in words)” value in test [3] is listed as “Some increase of intracellular cAMP levels”.
